One series deals with ParRB(pJIR4165) (Clostridium perfringens plasmid pJIR4165). The experiment in a line: SPR.
“AGGTATAAACTCAGTATATACATGATTGAA / TTCAATCATGTATATACTGAGTTTATACCTCCTACCCTACGTCCTCCTGC [parCB B17]” registered a binding signal of 368 RU.
Still for that read-out and setting: next, “TTTATTAATTTCACTATATGTATATACTGA / TCAGTATATACATATAGTGAAATTAATAAACCTACCCTACGTCCTCCTGC [parCB B1]”: 58 RU; “TAGTATATATCTAGTATATACTAAATTTAT / ATAAATTTAGTATATACTAGATATATACTACCTACCCTACGTCCTCCTGC [parCB B21]”: 377 RU; “TCACTATATGTATATACTGAATATATACAT / ATGTATATATTCAGTATATACATATAGTGACCTACCCTACGTCCTCCTGC [parCB B2]”: 383 RU.

In the next series the test system is ParRC(pCW3) (Clostridium perfringens plasmid pCW3). The experiment in a line: SPR. On the technique in general: Surface plasmon resonance follows binding to a sensor surface in real time, without labels.
As for “ATTTTACGGAAAATGCTTGATTTAGATTGA / TCAATCTAAATCAAGCATTTTCCGTAAAATCCTACCCTACGTCCTCCTGC [parCC C7]”, the binding signal was 9 RU.
Still for that read-out and setting: next, “AAAAAACATCACAATTTTACATAATAGAAA / TTTCTATTATGTAAAATTGTGATGTTTTTTCCTACCCTACGTCCTCCTGC [parCC C16]”: 311 RU; “AAAATGAAAAAAACATCACAATTTTACGGA / TCCGTAAAATTGTGATGTTTTTTTCATTTTCCTACCCTACGTCCTCCTGC [parCC C5]”: 249 RU; “GTAATTTAGATTTTGCAAGTAAAAAACATC / GATGTTTTTTACTTGCAAAATCTAAATTACCCTACCCTACGTCCTCCTGC [parCC C14]”: 42 RU.
The same measure, in the same setting: next, “AATTAAAAACATCACAATTTTACGTAATGA / TCATTACGTAAAATTGTGATGTTTTTAATTCCTACCCTACGTCCTCCTGC [parCC C1]”: 256 RU; “ACAATTTTACGTAATTTAGATTTTGCAAGT / ACTTGCAAAATCTAAATTACGTAAAATTGTCCTACCCTACGTCCTCCTGC [parCC C13]”: 48 RU; “ATCACAATTTTACGTAATGACAGTTTGTTG / CAACAAACTGTCATTACGTAAAATTGTGATCCTACCCTACGTCCTCCTGC [parCC C2]”: 54 RU.
On the same count and under the same terms, next, “TTTATTAATTTCACTATATGTATATACTGA / TCAGTATATACATATAGTGAAATTAATAAACCTACCCTACGTCCTCCTGC [parCB B1]”: -2.8 RU.
As to “AAACATCACAATTTTACGGAAAATGCTTGA / TCAAGCATTTTCCGTAAAATTGTGATGTTTCCTACCCTACGTCCTCCTGC [parCC C6]”, the binding signal is 282 RU.
“CATAAACATCACAATTTTACGTAATTTAGA / TCTAAATTACGTAAAATTGTGATGTTTATGCCTACCCTACGTCCTCCTGC [parCC C12]” yielded a binding signal of 348 RU.
Sequence “TTTTGCAAGTAAAAAACATCACAATTTTAC / GTAAAATTGTGATGTTTTTTACTTGCAAAACCTACCCTACGTCCTCCTGC [parCC C15]” showed a binding signal of 217 RU.
Consider “AATATAAAAACATAAACATCACAATTTTAC / GTAAAATTGTGATGTTTATGTTTTTATATTCCTACCCTACGTCCTCCTGC [parCC C11]”, for which the binding signal amounted to 154 RU.

The next series relates to ParRD(pJIR3118) (Clostridium perfringens plasmid pJIR3118 (CN1020 gDNA)). The experiment in a line: SPR.
“AGGTTATTTAATGTTAAATGATATTAAATA / TATTTAATATCATTTAACATTAAATAACCTCCTACCCTACGTCCTCCTGC [parCD D9]”: the binding signal is 213 RU.
The same measure, in the same setting: then “ATACTAATTAATATTATTTAATTATTGACT / AGTCAATAATTAAATAATATTAATTAGTATCCTACCCTACGTCCTCCTGC [parCD D13]”, with 187 RU; and “AAATAATATCAAATAATATTATTTAATGTC / GACATTAAATAATATTATTTGATATTATTTCCTACCCTACGTCCTCCTGC [parCD D4]”, with 232 RU.
Same read-out and setting: then “TTTATTAATTTCACTATATGTATATACTGA / TCAGTATATACATATAGTGAAATTAATAAACCTACCCTACGTCCTCCTGC [parCB B1]”, with 1.1 RU.
In the case of “ATATTAAATAACATTAAAAGATACTAATTA / TAATTAGTATCTTTTAATGTTATTTAATATCCTACCCTACGTCCTCCTGC [parCD D11]”, the binding signal was determined as 236 RU.
Still for that read-out and setting: next, “ACATTAAAAGATACTAATTAATATTATTTA / TAAATAATATTAATTAGTATCTTTTAATGTCCTACCCTACGTCCTCCTGC [parCD D12]”: 250 RU.
Sequence “GAATAATATTAAATAATATCAAATAATATT / AATATTATTTGATATTATTTAATATTATTCCCTACCCTACGTCCTCCTGC [parCD D3]” showed a binding signal of 225 RU.
Turning to “ATGTTAAATGATATTAAATAACATTAAAAG / CTTTTAATGTTATTTAATATCATTTAACATCCTACCCTACGTCCTCCTGC [parCD D10]”, the binding signal was 270 RU.

For the origin of these results see article PMC9426499.
